This is an account of results in PMC3866644 (RNA, 2014).

The chains are these.
T1: His6 fusion Prp39, full-length (yeast, UniProt P39682 1-629)
T1 sequence: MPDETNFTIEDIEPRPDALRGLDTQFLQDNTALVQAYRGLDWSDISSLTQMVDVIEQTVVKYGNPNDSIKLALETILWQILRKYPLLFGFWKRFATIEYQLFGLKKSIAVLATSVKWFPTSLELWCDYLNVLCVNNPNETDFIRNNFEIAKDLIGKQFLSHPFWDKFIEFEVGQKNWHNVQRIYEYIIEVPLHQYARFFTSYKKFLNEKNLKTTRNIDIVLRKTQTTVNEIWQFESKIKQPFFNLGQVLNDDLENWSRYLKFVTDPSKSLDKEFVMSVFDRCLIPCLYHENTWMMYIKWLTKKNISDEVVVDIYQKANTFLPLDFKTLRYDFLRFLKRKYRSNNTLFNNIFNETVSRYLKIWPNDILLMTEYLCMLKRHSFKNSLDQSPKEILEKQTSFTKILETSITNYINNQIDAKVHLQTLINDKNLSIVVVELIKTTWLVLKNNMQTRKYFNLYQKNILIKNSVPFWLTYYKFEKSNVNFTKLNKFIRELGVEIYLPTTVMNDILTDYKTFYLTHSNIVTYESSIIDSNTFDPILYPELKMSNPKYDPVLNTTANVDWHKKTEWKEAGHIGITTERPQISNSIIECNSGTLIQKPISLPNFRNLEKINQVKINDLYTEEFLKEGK

T2: His6 fusion Prp40, full-length (yeast, UniProt P33203 1-583)
T2 sequence: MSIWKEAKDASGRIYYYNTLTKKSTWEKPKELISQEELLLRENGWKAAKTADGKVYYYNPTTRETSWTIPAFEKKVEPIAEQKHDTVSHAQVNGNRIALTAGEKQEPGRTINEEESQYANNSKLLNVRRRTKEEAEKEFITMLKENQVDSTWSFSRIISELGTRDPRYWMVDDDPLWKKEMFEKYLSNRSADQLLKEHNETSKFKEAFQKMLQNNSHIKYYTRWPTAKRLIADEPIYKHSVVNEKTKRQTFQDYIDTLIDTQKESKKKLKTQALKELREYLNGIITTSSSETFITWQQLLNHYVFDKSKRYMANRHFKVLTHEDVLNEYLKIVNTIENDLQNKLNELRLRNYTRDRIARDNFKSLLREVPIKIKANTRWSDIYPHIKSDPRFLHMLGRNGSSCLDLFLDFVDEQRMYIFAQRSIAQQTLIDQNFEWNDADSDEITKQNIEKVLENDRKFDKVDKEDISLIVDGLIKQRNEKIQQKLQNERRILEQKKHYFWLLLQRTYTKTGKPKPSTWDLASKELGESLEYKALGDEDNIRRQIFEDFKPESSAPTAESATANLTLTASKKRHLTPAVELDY

T3: His6 fusion Prp28 (yeast, UniProt P23394 1-588)
T3 sequence: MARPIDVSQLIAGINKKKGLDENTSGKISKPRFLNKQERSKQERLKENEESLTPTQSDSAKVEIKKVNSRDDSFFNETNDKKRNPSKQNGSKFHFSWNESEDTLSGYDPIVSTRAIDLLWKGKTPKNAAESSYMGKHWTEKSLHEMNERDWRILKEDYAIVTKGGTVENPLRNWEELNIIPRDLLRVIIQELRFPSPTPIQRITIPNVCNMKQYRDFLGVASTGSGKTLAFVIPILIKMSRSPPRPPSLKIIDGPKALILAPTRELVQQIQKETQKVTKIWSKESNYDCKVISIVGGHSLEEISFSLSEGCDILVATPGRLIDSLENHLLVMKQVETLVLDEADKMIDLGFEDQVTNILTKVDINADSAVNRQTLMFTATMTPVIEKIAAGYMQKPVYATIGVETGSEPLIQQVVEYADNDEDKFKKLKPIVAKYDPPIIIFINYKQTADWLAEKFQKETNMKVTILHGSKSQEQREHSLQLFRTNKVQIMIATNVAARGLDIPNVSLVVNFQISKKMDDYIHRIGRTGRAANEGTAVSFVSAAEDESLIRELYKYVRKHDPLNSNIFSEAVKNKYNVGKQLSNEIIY

B1: GST-fusion Prp8-NTD (Prp8 residues 1-330), wild-type sequence (domain or fragment)
chain: not shown
B2: GST-fusion Prp8-NTD(P263L/W279G) (domain or fragment)
chain: MSGLPPPPPGFEEDSDLALPPPPPPPPGYEIEELDNPMVPSSVNEDTFLPPPPPPPSNFEINAEEIVDFTLPPPPPPPGLDELETKAEKKVELHGKRKLDIGKDTFVTRKSRKRAKKMTKKAKRSNLYTPKAEMPPEHLRKIINTHSDMASKMYNTDKKAFLGALKYLPHAILKLLENMPHPWEQAKEVKVLYHTSGAITFVNETPRVIEPVYTAQWSATWIAMRREKRDRTHFKRMRFPPFDDDEPPLSYEQHIENIEPLDLINLPLDSQDDEYVKDGLYDSRPLEEDSKKVNGTSYKKWSFDLPEMSNLYRLSTPLRDEVTDKNYYYL
B3: GST-fusion Prp8-NTD(R226G) (domain or fragment)
chain: B2 chain with R226G, L263P, G279W
B4: GST-fusion Prp8-NTD(D273G) (domain or fragment)
chain: B2 chain with L263P, D273G, G279W

Where a chain is given by its changes, count along the chain named. Numbers in names are those of the source.

The first assay addresses T1, His6 fusion Prp39, full-length. The experiment in a line: pull-down.
With B1, the binding result is reported as “binds”.
On to B2, for which the binding result is “binds”.
Still for that read-out and setting: under B3 stands “binds”; under B4, “binds”.

A further assay has as its target T2, His6 fusion Prp40, full-length. Put plainly: pull-down.
With B1, the binding result is “binds”.
Consider B2, for which the binding result is recorded as “binds”.
Turning to B3, the binding result is given as “binds”.
For B4, the binding result is reported as “binds”.

The next assay concerns the target T3, His6 fusion Prp28. Put plainly: pull-down.
Take B1: the binding result is “binds”.
